Assay: yeast display, Sf9 membrane polyspecificity reagent, FACS + sequencing; frameworks hold sequencing errors
How it was run: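 Polyreactivity labels are assigned by the sorting gate from which each nanobody was recovered. The gates were low and high (top ~1%), set on anti-HA fluorescence for expression and streptavidin fluorescence for reagent binding. Before sorting, galactose-induced (36–48 hours) yeast display cells were stained for 1 hour at 4 °C with 10% biotinylated, detergent-solubilized Sf9 membrane reagent.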
For “QVQLVESGGGLVQAGGSLRLSCAASGSIFGYNVMGWYRQAPGKERELVAAITVNGGRTYYADSVKGRFTISRDNAKNTVYLQINSLKAEDTAVYYCAARVTGTQRSGYYWGQGTQVTVSS”, the “polyreactivity (PSR sort gate)” value was “high polyreactivity”. With “QVQLVESGGGLVQAGGSLRLSCAASGSIFGYYAMGCYRQAPGKERELDAAISASGGSTYYADSVKGRFTISRDNAKITVYFHMNSLKPEDTAVYYCAAVRSVTYIWARYPYGLEYCGQGTQVTVSS” the “polyreactivity (PSR sort gate)” value was “high polyreactivity”. In the case of “QVQLVESGGGLVQAGGSLRLSCAASGSIFGYYAMGWSRQAPGKERELVAAISASGGSTYYADSVKGRFTISRDNAKNTVYLQMNSLKPEDTAVYYCAKVDWEQGFWVEYDHYDYWGQGTQVTVSS”, the “polyreactivity (PSR sort gate)” value is reported as “high polyreactivity”. For “QVQLVESGGGLVQAGGSLRLSCAASGSIFGYYAMGWYRKAPGKERELVAAISWSDGSTYYADSVKGRFTISRDNAKNTVYLQMNSLNPEDTAVYYCAARFTPYITSDDGHYDYWGQGTQVTVSS”, the “polyreactivity (PSR sort gate)” value was “low polyreactivity”. With “QVQLVESGGGLVQAGGSLRLSCAASGSIFGYYAMGWYRPATGKEREFVAAITSSGGSTYYADSVKGRFTISRDNAKNTVYLQMNSLKPEDTAVYYCNAGAWQLYWYRYEYWGQGTQVTVSS” the “polyreactivity (PSR sort gate)” value was “high polyreactivity”. In the case of “QVQLVESGGGLVQAGGSLRLSCAASGSIFGYYAMGWYRQAPGKEREFDADINSRDGGTYYADSVKGRFTISRDNAKNTVYLQMNSLKPEDTAVYYCAAPYYAAWVAVAIEYDYWGQGTQVTVSS”, the “polyreactivity (PSR sort gate)” value is reported as “low polyreactivity”. In the case of “QVQLVESGGGLVQAGGSLRLSCAASGSIFGYYAMGWYRQAPGKEREFVAAITWNGGSTYYADSVKGRFTISRDNAKNTVYLQMNSLKPEDTAVYYCARTSYARYRNGWTYDHWGQGTQVTVSS”, the “polyreactivity (PSR sort gate)” value is reported as “low polyreactivity”. In the case of “QVQLVESGGGLVQAGGSLRLSCAASGSIFGYYAMGWYRQAPGKERELVAAISGSGGSTYYADSVKGRFTISRDNAKNTVYLQMNSLKPEDTAVYYCAAAYHGRHYYWGQGTQVTVSS”, the “polyreactivity (PSR sort gate)” value is reported as “high polyreactivity”. In the case of “QVQLVESGGGLVQAGGSLRLSCAASGSIFGYYAMGWYRQAPGKERELVAAISWSGGSTYYADSVKGRFTISRDNAKNTVYLQMNSLKPEDTAVYYCAATSRGNDSQKYYYWGQGTQVTVSS”, the “polyreactivity (PSR sort gate)” value is reported as “low polyreactivity”. With “QVQLVESGGGLVQAGGSLRLSCAASGSIFGYYAMGWYRQAPGKERELVAAITSDGSTYYADSVKGRFTITRDNAKNTVNLQMNSLKPEDTAVYYCAAYSWYYTSRYDYWGQGTQVTVSS” the “polyreactivity (PSR sort gate)” value was “low polyreactivity”. With “QVQLVESGGGLVQAGGSLRLSCAASGSIFGYYAMGWYRQAPGKERELVARIRSTGSTNYADSVKGRFTISRDNAKNTVYLQMNSLKPEDTAVFYCNKLAHRKGGYWGQGTQVTVSS” the “polyreactivity (PSR sort gate)” value was “high polyreactivity”. For “QVQLVESGGGLVQAGGSLRLSCAASGSIFGYYAMGWYRQAPGKERELVASISWSGTSTYYADSVKGRFTISRDNAKNTVYLQMNSLKPEDTAVYYCATKGLFTNSPLYVSAYDYWGQGTQVTVSS”, the “polyreactivity (PSR sort gate)” value was “low polyreactivity”. With “QVQLVESGGGLVQAGGSLRLSCAASGSIFGYYAMGWYRQAPGKERELVATISNDGSTKYADSVKGRFTISRDNAKNTVYLQMNSLKPEDSAVYYCAADSARHGRDTYQPEYRNDYWGQGTQVTVSS” the “polyreactivity (PSR sort gate)” value was “low polyreactivity”. For “QVQLVESGGGLVQAGGSLRLSCAASGSIFGYYDMGWYRQAPGKERELVAAISSRGGITYYADSVKGRFTISRDHAKNTVYLQMNSLKPEDTAVYYCAAYAYFHRREGYWVQGTQVTVSS”, the “polyreactivity (PSR sort gate)” value was “high polyreactivity”. With “QVQLVESGGGLVQAGGSLRLSCAASGSIFGYYGMGWYRQAPGKERELVAAISYRGGYTYYADSVKGRFTISRDNAKNTVSLQMNSLKPEDTAVYYCNAGGRRRIFAHSSTGDYWGQGTQVTVSS” the “polyreactivity (PSR sort gate)” value was “high polyreactivity”. For “QVQLVESGGGLVQAGGSLRLSCAASGSIFGYYTMGLYRQAPGKERELVAAITSGGSTNYADSVKGRFTISRDNAKNTVYLQMNSLKPEDTAVYYCAKVSYYPWRYDYWGQGTQVTVSS”, the “polyreactivity (PSR sort gate)” value was “low polyreactivity”. With “QVQLVESGGGLVQAGGSLRLSCAASGSIFGYYTMGWYRKAPGKERELVAAITSGGSTNYADSVKGRFTISRDNAKNTVYLQMNSLKPEDTAVYYCAKVSYYPWRYDYWGQGTQVTVSS” the “polyreactivity (PSR sort gate)” value was “low polyreactivity”. With “QVQLVESGGGLVQAGGSLRLSCAASGSIFGYYTMGWYRQAPGKEREFVAAISWSGGSTYYADSVKGRFTISRDNAKNTVYLQMTSLKPEDTAVYYCNADVYWEYDYWGQGTQVTVSS” the “polyreactivity (PSR sort gate)” value was “low polyreactivity”. In the case of “QVQLVESGGGLVQAGGSLRLSCAASGSIFGYYTMGWYRQAPGKERELVAAITYSGGSTYYADSVKGRFTISRDNAKNTVYLQMNSLKPEDTAVYYCNAKSAAHRYVRRHDYWGQGTQVTVSS”, the “polyreactivity (PSR sort gate)” value is reported as “low polyreactivity”. For “QVQLVESGGGLVQAGGSLRLSCAASGSIFGYYTMGWYRQAPGKERELVATISRSGGSTYYADSVKGRFTISRDNAKNTVYLQMNSLKPEDTAVYYCGARSWGGYDSRGYWGQGTQVTVSS”, the “polyreactivity (PSR sort gate)” value was “high polyreactivity”. In the case of “QVQLVESGGGLVQAGGSLRLSCAASGSIFGYYVMGWDRQAPGKERELVAAITRSGSTYYADSVKGRFTISRDNAKNTVYLQMNSLKPEDTAVYYCAADGSYYWYPHTTYDYWGQGTQVTVSS”, the “polyreactivity (PSR sort gate)” value is reported as “low polyreactivity”. In the case of “QVQLVESGGGLVQAGGSLRLSCAASGSIFHFNAMGWYRQAPGKERELVATITSSGSSTYYADSVKGRFTISRDNAKNTVYLQMNSLKPEDTAVYYCAAGWFWQMDYWGQGTQVTVSS”, the “polyreactivity (PSR sort gate)” value is reported as “low polyreactivity”. With “QVQLVESGGGLVQAGGSLRLSCAASGSIFHIYMGGYRQAPGKERELVASMSYRGGTTYYADSVKGRFTISRDNAKNTVYLQKNSLKPEDTAVYYCNVHRDFYHYGRYGHMDYWGQGC” the “polyreactivity (PSR sort gate)” value was “low polyreactivity”. For “QVQLVESGGGLVQAGGSLRLSCAASGSIFHLYAMGWYRQAPGKEREFVAAISSSGGLTYYADSVKGRFTISRDNAKNTVYLQMNSLKPEDTEVYYCATAEQYGTKLRKVSYQYDYWGQGTQVTVSS”, the “polyreactivity (PSR sort gate)” value was “low polyreactivity”. For “QVQLVESGGGLVQAGGSLRLSCAASGSIFHPYAMGWYRQAPGKERELVAAISKSGGNTYYADSVKGRFTISRDNAKNTVYLQMNSLKPEDTAVYYCAALDYWGQGTQLTVSS”, the “polyreactivity (PSR sort gate)” value was “low polyreactivity”. In the case of “QVQLVESGGGLVQAGGSLRLSCAASGSIFHPYGMGWYRQAPGKERELVAAITSSGGDKYYADSVKGRFTISRDNAKNTVYLQMNSLKPEDTAVYYCAATGLPGYYAYDYWGQGTQVTVSS”, the “polyreactivity (PSR sort gate)” value is reported as “low polyreactivity”. In the case of “QVQLVESGGGLVQAGGSLRLSCAASGSIFHRYAMGWYRQAPGKERELVAAINRGGSSYADSVKGRFTISLDNAKNTVYLQMNRLNPEDTAVYYCATRNIGRSTGPFYWGYYYWGQGTQVTVSS”, the “polyreactivity (PSR sort gate)” value is reported as “high polyreactivity”. With “QVQLVESGGGLVQAGGSLRLSCAASGSIFHSYAMGWYRQAPGKERDFVASITQRVGRTNYADSVKGRFTISRDNAKNTVYLQMNSLKPEDTAVYYFAASYWRLYYRRDYWGQGTQVTVSS” the “polyreactivity (PSR sort gate)” value was “high polyreactivity”. With “QVQLVESGGGLVQAGGSLRLSCAASGSIFHTYAMGWYRKAPEKERELVAANTVSGGDTYYADSVKGRFTISRDNEKNTVYLQMNSLKAEDTAVYYCAVDTTTSYTVEYDYWGQGTQVTVSS” the “polyreactivity (PSR sort gate)” value was “low polyreactivity”. For “QVQLVESGGGLVQAGGSLRLSCAASGSIFHWNAMGWYRQAPGKERELVAGITTSGGTTYYADSVKGRFTISRDNAKNTVYLQMNSLKPEDTAVYYCAARIIRWRPRWPSYGKYDYWGQGTQVTVSS”, the “polyreactivity (PSR sort gate)” value was “low polyreactivity”. With “QVQLVESGGGLVQAGGSLRLSCAASGSIFHYNAMGWSRQAPGKERELVAAISRGGSTHYADSVKGRFTISRDNAKNTVYLQMNSLKPEDTAVYYCATVQVVGPWSYRKLDYCGQGTQVTVSS” the “polyreactivity (PSR sort gate)” value was “high polyreactivity”. In the case of “QVQLVESGGGLVQAGGSLRLSCAASGSIFHYYAMGWYRQAPGKERELVAAINSSGGSRTYYADSVKGRFTISRDNAKNTVYLQMNSLKPEDTAVYYCAAARDVFLGLQIWYWYGGDYWGQGTQVTVSS”, the “polyreactivity (PSR sort gate)” value is reported as “low polyreactivity”. For “QVQLVESGGGLVQAGGSLRLSCAASGSIFHYYAMGWYRQAPGKERELVAAISWSGGRTNYADSVKGRFTISRDNAKNTVYLQMKSLKPEDTAVYYCAAGNSFSDRGHRVYFQYYYWGQGTLVTVSS”, the “polyreactivity (PSR sort gate)” value was “high polyreactivity”. In the case of “QVQLVESGGGLVQAGGSLRLSCAASGSIFIANAMGWYRQAPGKERELFAAITLNGGSTYYADSVKGRFTISRDNAKNTVYLQMNSLKPEDTAVYYCAADWVWVAPQYWIVEYDYRGQGTQVTVSS”, the “polyreactivity (PSR sort gate)” value is reported as “low polyreactivity”. With “QVQLVESGGGLVQAGGSLRLSCAASGSIFIDNAMGWYRQAPGKEREFVAAISKSGTSTYYADSVKGRFTISRDNAKNTVYLQMNSLKPEDTAVYYCAVRRPRPYSNYYYWGQGTQVTVSS” the “polyreactivity (PSR sort gate)” value was “high polyreactivity”. With “QVQLVESGGGLVQAGGSLRLSCAASGSIFIDYVMGWYRQAPGTERELVAAISKRGGSTYYADSVKGRFTISRDNAKNTVYLQMNSLKPEDTAVYYCNAYRIGVYTAKDGYWGQGTQVTVSS” the “polyreactivity (PSR sort gate)” value was “high polyreactivity”. With “QVQLVESGGGLVQAGGSLRLSCAASGSIFIGNAMGWYRQAPGKERELVAAITWSGGSTTYADSVKGRFTISRDNAKNTVYLQMNSLKPEDTAVYYCNASIYQRYDYWGQGTQVTVSS” the “polyreactivity (PSR sort gate)” value was “low polyreactivity”. In the case of “QVQLVESGGGLVQAGGSLRLSCAASGSIFIHNAMGWYRQAPGKERELVPGITTGGSTYYADSVKGRFTISRDNAKNTVYLQMNSLKPEDTAVYYCATARSYLTYSYHYDYWGQGTQVTVSS”, the “polyreactivity (PSR sort gate)” value is reported as “low polyreactivity”. With “QVQLVESGGGLVQAGGSLRLSCAASGSIFINYVMGWYRQAPGKERELVAAISSIGDSTYYADSVKGRFTISRDNAKNTVYLQMNSLKPEDTAVYYCNAEIPSLKASPLYRYDYWGQGTKVTVSS” the “polyreactivity (PSR sort gate)” value was “high polyreactivity”. In the case of “QVQLVESGGGLVQAGGSLRLSCAASGSIFIPYAMGWYRQAPGKERELVAAISGSGTSTNYADSVKGRFTISRDNAKNTVYLQMNSLKPEDTAVYYCAARLPYGYLRSKFYYWGQGTQVTVSS”, the “polyreactivity (PSR sort gate)” value is reported as “high polyreactivity”. In the case of “QVQLVESGGGLVQAGGSLRLSCAASGSIFISNAMGWYRQAPGKEWELVAAINWTTGRTRYADSVKGRFTISRDNAKNTVYLQMNSLKPEDTAVYYCAARPYGGGRRSIYYYWGQGHQVTVSS”, the “polyreactivity (PSR sort gate)” value is reported as “high polyreactivity”. With “QVQLVESGGGLVQAGGSLRLSCAASGSIFISNAMGWYRQAPGTERELVAAISRSGARTYYADSVKGRFTISRDNAKNTVYLQMNSLKPEDTAVYYCAVVGYSPYKYDYWGQGTQVTVSS” the “polyreactivity (PSR sort gate)” value was “high polyreactivity”. For “QVQLVESGGGLVQAGGSLRLSCAASGSIFISYAMGWYRQAPGKERELVAAISRSAGRTYYADSVKGRFTISRDNAKNTVYLQMNSLQPEDTAVYYCAASGYKNGVYTYGYWGQGTQVTVSS”, the “polyreactivity (PSR sort gate)” value was “high polyreactivity”.

From the nanobody polyreactivity screen of Harvey et al. (2022)
